Assay [1] concerns the target T1, human prostate specific membrane antigen (PSMA) (human, UniProt Q04609 1-750).
T1 construct: Endogenous PSMA on the human prostate cancer cell lines LNCaP, 22Rv1, MDA-PCA-2B and VCAP; also called human PSMA
Put plainly: flow cytometry, direct binding to LNCaP cells (relative cell binding, MFI, against concentration in nM); the table under the plot labels the half-maximal concentration IC50; unit taken from the concentration axis.

Assay [2] deals with T1, human prostate specific membrane …. The assay is described as above. This is another data set of the same source.
Assay [3] has as its target T2, cynomolgus monkey PSMA-Fc fusion (human; cynomolgus monkey, PSMA is a glycosylated homodimer. Only one subunit is given.).
T2 construct: also called cyno PSMA Fc; cynoPSMA-Fc; not shown: Human IgG1 Fc domain, which sits N-terminal of the PSMA ECD, and the junction with the Prescission protease site
T2 chain: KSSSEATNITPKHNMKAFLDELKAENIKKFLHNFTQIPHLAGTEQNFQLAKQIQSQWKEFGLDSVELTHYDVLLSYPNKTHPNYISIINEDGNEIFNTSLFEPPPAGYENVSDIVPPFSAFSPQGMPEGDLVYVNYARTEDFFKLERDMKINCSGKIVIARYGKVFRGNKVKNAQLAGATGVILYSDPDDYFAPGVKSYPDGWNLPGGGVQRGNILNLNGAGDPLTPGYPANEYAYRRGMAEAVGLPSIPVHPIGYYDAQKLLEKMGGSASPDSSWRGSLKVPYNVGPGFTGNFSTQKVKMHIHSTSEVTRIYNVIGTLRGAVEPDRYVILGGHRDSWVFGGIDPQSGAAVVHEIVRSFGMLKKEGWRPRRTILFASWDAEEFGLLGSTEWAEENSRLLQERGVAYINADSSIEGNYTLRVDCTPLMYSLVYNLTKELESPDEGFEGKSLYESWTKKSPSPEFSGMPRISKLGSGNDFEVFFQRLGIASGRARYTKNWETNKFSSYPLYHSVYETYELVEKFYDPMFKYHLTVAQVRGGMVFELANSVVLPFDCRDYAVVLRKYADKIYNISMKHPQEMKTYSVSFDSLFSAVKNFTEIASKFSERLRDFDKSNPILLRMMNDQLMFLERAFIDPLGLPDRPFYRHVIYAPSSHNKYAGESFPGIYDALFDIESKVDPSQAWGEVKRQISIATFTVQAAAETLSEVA
The assay is described as follows: binding to cynoPSMA-Fc; method not described.

Assay [4] concerns the target T1, human prostate specific membrane …. The assay is described as follows: binding to LNCaP cells (flow cytometry, FIG. 8C).
For assay [5] the target is unchanged. The assay is described as follows: flow cytometry, direct binding to LNCaP cells (relative cell binding, MFI, against concentration in nM); the table under the plot labels the half-maximal concentration IC50; unit taken from the concentration axis. The source holds these as a separate data set.
For assay [6] the target is unchanged. Put plainly: binding to LNCaP cells (flow cytometry, FIG. 9C).
In assay [7] the target is T2, cynomolgus monkey PSMA-Fc fusion. The assay is described as follows: binding to cynoPSMA-Fc; method not described.

Where two headings read alike, the source gives them in different places.

T1 sequence (Q04609 whole entry): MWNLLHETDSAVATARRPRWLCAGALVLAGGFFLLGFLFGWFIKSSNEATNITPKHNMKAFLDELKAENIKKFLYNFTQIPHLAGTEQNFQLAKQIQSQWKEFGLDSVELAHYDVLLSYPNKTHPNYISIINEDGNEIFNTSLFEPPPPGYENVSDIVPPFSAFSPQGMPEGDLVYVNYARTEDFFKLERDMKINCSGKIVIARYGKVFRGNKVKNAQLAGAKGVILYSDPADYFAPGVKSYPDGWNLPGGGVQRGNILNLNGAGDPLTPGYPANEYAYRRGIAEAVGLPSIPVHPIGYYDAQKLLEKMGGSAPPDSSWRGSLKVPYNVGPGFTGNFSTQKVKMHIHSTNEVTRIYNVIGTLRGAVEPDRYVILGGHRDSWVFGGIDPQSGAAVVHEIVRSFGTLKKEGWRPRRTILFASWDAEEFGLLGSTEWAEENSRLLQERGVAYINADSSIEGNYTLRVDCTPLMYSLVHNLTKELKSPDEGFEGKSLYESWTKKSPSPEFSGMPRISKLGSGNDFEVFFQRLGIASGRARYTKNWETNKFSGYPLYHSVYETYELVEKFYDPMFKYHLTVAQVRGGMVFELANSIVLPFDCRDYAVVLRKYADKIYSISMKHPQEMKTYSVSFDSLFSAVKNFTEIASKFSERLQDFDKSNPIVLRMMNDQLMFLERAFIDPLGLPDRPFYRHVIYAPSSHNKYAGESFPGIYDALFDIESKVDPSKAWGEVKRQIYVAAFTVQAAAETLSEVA

B1: P233FR9_H10 PSMA binding FN3 domain (designed binder)
chain: LPAPKNLVVSRVTEDSARLSWTAPDAAFDSFAIGYWEWDDDGEAIVLTVPGSERSYDLTGLKPGTEYPVYIAGVKGGQWSFPLSAIFTT
notes: His-tagged, expressed in E. coli; also called H10 centyrin; not shown: C-terminal poly-histidine tag
For the molecule B1, the half-maximal inhibitory concentration (IC50) in assay [1], in assay [2] and in assay [5] was 0.598 nM in each case. In addition, the values for the dissociation constant Kd in assay [3] and in assay [4] were 692 nM and approximately 0.003 nM, respectively.

B2: P233FR9_H10_v18 (designed binder)
chain: LPAPKNLVVSRVTEDSARLSWTAPDAAFDSFAIAYWEWDDDGEAIVLTVPGSCRSYDLTGLKPGTEYPVYIAGVKGGQWSFPLSAIFTT
notes: Optimized Centyrin; not shown: C-terminal poly-histidine tag
B2 came in with a 50% inhibitory concentration (IC50) in assay [2] of 0.608 nM.

B3: P258AR6P1071_D02 (designed binder)
chain: LPAPKNLVVSRVTEDSARLSWAIDEQRDWFESFLIQYQESEKVGEAIVLTVPGSERSYDLTGLKPGTEYTVSIYGVYHVYRSNPLSAIFTT
notes: not shown: C-terminal poly-histidine tag
On to B3, for which the dissociation constant Kd was approximately 0.025 nM in assay [6] and 0.1 nM in assay [7]. Besides, in assay [5], the concentration for half-maximal inhibition (IC50) stood at 1.32 nM.

These data come from patent US20230183314A1 (ARO BIOTHERAPEUTICS, published 2023).
